The target in assay [1] is T1, MMP-13 (Homo sapiens, UniProt P45452). Description: In-vitro cleavage assay of c-Myc tagged, biotinylated dimeric CD28 stalk region peptide by rhMMP-13 (ELISA detection of intact peptide). It counts as biochemical. Conditions: 25 ng and 50 ng MMP-13, 5-hour incubation; FIG. 4D. On the technique in general: ELISA stands for enzyme-linked immunosorbent assay.
Assay [2] addresses T2, MMP-2 (Homo sapiens, UniProt P08253).
T2 construct: purchased AnaSpec and R&D Systems AS-72005 / 902-MP
T2 sequence (P08253 110-660): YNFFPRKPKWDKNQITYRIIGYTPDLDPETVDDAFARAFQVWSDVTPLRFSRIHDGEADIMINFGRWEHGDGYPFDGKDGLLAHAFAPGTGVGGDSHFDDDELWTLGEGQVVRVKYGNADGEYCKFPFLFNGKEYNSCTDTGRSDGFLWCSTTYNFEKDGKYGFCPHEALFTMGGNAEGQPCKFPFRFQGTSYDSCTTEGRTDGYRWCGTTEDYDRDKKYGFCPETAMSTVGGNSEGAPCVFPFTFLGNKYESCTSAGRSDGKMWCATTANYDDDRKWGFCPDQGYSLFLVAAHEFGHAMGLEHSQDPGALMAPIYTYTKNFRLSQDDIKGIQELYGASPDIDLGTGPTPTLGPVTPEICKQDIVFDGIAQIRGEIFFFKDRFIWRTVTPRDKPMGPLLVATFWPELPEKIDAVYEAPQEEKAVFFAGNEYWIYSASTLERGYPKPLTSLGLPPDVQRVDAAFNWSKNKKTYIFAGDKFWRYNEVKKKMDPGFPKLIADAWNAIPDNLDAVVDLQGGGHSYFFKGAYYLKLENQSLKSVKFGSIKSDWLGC
Nature of the assay: In-vitro cleavage assay of c-Myc tagged, biotinylated dimeric CD28 stalk region peptide by rhMMP-2 (ELISA detection of intact peptide). It counts as biochemical. Particulars: 25 ng and 50 ng MMP-2, 5-hour incubation; FIG. 4C.

Assay [3] concerns the target T1, MMP-13. Description: Fluorogenic assay: cleavage of quenched fluorogenic human CD28 stalk region peptide by MMP-13. It counts as biochemical. Conditions: increasing dose of inhibitor; FIG. 1E. As for the experimental part:
(§1) FIGS. 1A-1E. (1A-1E) Line graphs of fluorescence from quenched fluorogenic peptides of the human CD28 stalk region incubated with (1A) various recombinant human sheddases, (1B) varying concentrations of rhMMP-2, (1C) MMP-2 and various concentrations of the MMP-2 specific inhibitor ARP-100, (1D) varying concentrations of rhMMP-13, or (1E) MMP-13 and broad MMP inhibitor TMI-1.
(§2) Matrix Metalloproteinases and ADAM's—Commercial recombinant human metalloproteinases MMP-1 (Cat. No. AS-55575), MMP-9 (Cat. No. AS-55576), MMP-10 (Cat. No. AS-72067), MMP-12 (Cat. No. AS-55525) and MMP-13 (Cat. No. AS-72257) are from AnaSpec. […]
(§3) Fluorogenic Assay—The assay was performed with indicated MMP's (10 or 30 ng) in 50 mM Tris, 10 mM CaCl2), 150 mM NaCl, 0.05% Brij-35, pH 7.5 or ADAM10/ADAM17 (5 μg/mL) in 25 mM Tris, 2.5 mM ZnCl2 and 0.005% Brij-35, pH 9. Cleavage of the fluorogenic substrate (10 μM) was measured at Ex340/Em490 nm using Biotek Synergy H1 spectrofluorometer.
(§4) It has been hypothesized that ADAM-10 and ADAM-17 may play a role in this shedding. […] When intact, the fluorochrome on the peptide is quenched and no fluorescence is measured. Cleavage of the peptide allows the fluorochrome to dissociate from the quencher and fluorescence is measurable by a dedicated reader. […] The peptide alone without any sheddase added was used as a control to normalize the readings. […]

The subject of assay [4] is chronically stimulated human PBMCs. Particulars: previously shown in WO2019/175885; dose dependent; cited from earlier work.
Assay [5] addresses T2, MMP-2. Description: Fluorogenic assay: cleavage of quenched fluorogenic human CD28 stalk region peptide by MMP-2. It counts as biochemical. Particulars: increasing dose of inhibitor; FIG. 1C. As for the experimental part:
as §1, §2, §3, §4

For the next assay, the target named is T3, human CD28 stalk region (Homo sapiens, UniProt P10747).
T3 construct: human CD28 stalk region (His134-Pro152)
Nature of the assay: Binding to human CD28 stalk region dimeric peptide by ELISA. Conditions: for binding to human CD28 stalk region sequence: ELISA, serial dilution of VHH clones, FIG. 5; for specific binding to MMP cleavage site of human CD28: WT versus L145K stalk region dimeric peptides, VHH 0.2-5 μg/mL, FIG. 7.

Where no end group is shown, it is not given here. A value given as a limit tells only on which side of the number the result lay.

Take “mutated peptide: cMyc tagged, biotinylated dimeric CD28 stalk region peptide with L145K, EQKLISEEDLGGGGHVKGKHLCPSPKFPGPSKP (SEQ ID NO: 19) (EQKLISEEDLGGGGHVKGKHLCPSPKFPGPSKP-biotin; also: dimeric peptide) [reference compound]”: in the assay with MMP-13 [1], the “peptide cleaved by MMP-13” value is listed as less than 5%. Further, in the assay with MMP-2 [2], the “peptide cleaved by MMP-2” value is on record as less than 5%.

Consider `CC#CCOc1ccc(S(=O)(=O)N2CCSC(C)(C)[C@@H]2C(=O)NO)cc1` [TMI-1], for which the “cleavage of the CD28 stalk fluorogenic peptide by MMP-13” value on MMP-13 [3] is given as “cleavage decreased in a dose dependent manner”.

For the molecule TAPI, in assay [4], the “levels of sCD28 produced by chronically stimulated human PBMCs” value was “diminish levels of sCD28”.

In the case of `CC(C)ON(CC(=O)NO)S(=O)(=O)c1ccc(-c2ccccc2)cc1` [ARP-100], the “cleavage of the CD28 stalk fluorogenic peptide by MMP-2” value on MMP-2 [5] is “cleavage decreased in a dose dependent manner”.

B1: clone 4A1: llama-derived VHH single domain antibody binding the human CD28 stalk region, SEQ ID NO: 31, C-terminal His-tag (protein)
VHH: QVQLVESGGGLVQAGGSLRLSCAASGSIFSINAMGWYRQAPGKQRERVAAITSGGSTNYADSVKGRFTISRDNAKNTVYLQMNNLEPRDAGVYYCVVDLYGEDYWIWGQGTQVTVSSAAAHHHHHH
modifications: C-terminal His-tag
B1: in the assay with human CD28 stalk region, the “binding to human CD28 stalk region sequence” value is listed as “specifically bind the stalk region of human CD28” and the “specific binding to MMP cleavage site of human CD28” value is recorded as “bind specifically to MMP cleavage site of human CD28”.

B2: clone 4A4: llama-derived VHH single domain antibody binding the human CD28 stalk region, SEQ ID NO: 30, C-terminal His-tag (protein)
VHH: EVQLVESGGGLVQAGGSLRLSCAASGSLFSINAMAWYRQAPGKQRELVAAITSSGSTNYANSVKGRFTVSRDNAKNTMYLQMNSLKPEDTAVYYCVVDEYGSDYWIWGQGTQVTVSSAAAHHHHHH
modifications: C-terminal His-tag
Consider B2, for which, in the assay with human CD28 stalk region, the “binding to human CD28 stalk region sequence” value is “specifically bind the stalk region of human CD28” and the “specific binding to MMP cleavage site of human CD28” value is given as “bind specifically to MMP cleavage site of human CD28”.

These data come from patent publication US12612459B2, “Methods of identifying agents that block MCD28 cleavage by MMPS” (BIOND BIOLOGICS LTD., priority 2019, dated 2026).
